Assay results from article PMC6624373, “Lamin A molecular compression and sliding as mechanisms behind nucleoskeleton elasticity” (Nature Communications, 2019).
Positions count from the first letter of the chain named.

B1: lamin A R25G (natural protein, human, UniProt P02545 1-646, looked up)
chain: METPSQRRATRSGAQASSTPLSPTGITRLQEKEDLQELNDRLAVYIDRVRSLETENAGLRLRITESEEVVSREVSGIKAAYEAELGDARKTLDSVAKERARLQLELSKVREEFKELKARNTKKEGDLIAAQARLKDLEALLNSKEAALSTALSEKRTLEGELHDLRGQVAKLEAALGEAKKQLQDEMLRRVDAENRLQTMKEELDFQKNIYSEELRETKRRHETRLVEIDNGKQREFESRLADALQELRAQHEDQVEQYKKELEKTYSAKLDNARQSAERNSNLVGAAHEELQQSRIRIDSLSAQLSQLQKQLAAKEAKLRDLEDSLARERDTSRRLLAEKEREMAEMRARMQQQLDEYQELLDIKLALDMEIHAYRKLLEGEEERLRLSPSPTSQRSRGRASSHSSQTQGGGSVTKKRKLESTESRSSFSQHARTSGRVAVEEVDEEGKFVRLRNKSNEDQSMGNWQIKRQNGDDPLLTYRFPPKFTLKAGQVVTIWAAGAGATHSPPTDLVWKAQNTWGCGNSLRTALINSTGEEVAMRKLVRSVTVVEDDEDEDGDDLLHHHHGSHCSSSGDPAEYNLRSRTVLCGTCGQPADKASASGSGAQVGGPISSGSSASSVTVTRSYRSVGGSGGGSFGDNLVTRSY
notes: lamin A, human; pre-lamin A without its last 18 amino acids, as m1; mutation associated with EDMD/LGMD1B; source: E. coli (pET28b); purification of the mutants not separately stated
B2: lamin A R388E (natural protein, human, UniProt P02545 1-646, looked up)
chain: B1 chain with G25R, R388E
notes: lamin A, human; pre-lamin A without its last 18 amino acids, as m1; de novo mutant; source: E. coli (pET28b); purification of the mutants not separately stated
B3: lamin A E33G (natural protein, human, UniProt P02545 1-646, looked up)
chain: B1 chain with G25R, E33G
notes: as for B1
B4: lamin A R401E (natural protein, human, UniProt P02545 1-646, looked up)
chain: B1 chain with G25R, R401E
notes: as for B2
B5: lamin A R401C (natural protein, human, UniProt P02545 1-646, looked up)
chain: B1 chain with G25R, R401C
notes: lamin A, human; pre-lamin A without its last 18 amino acids, as m1; mutation associated with EDMD; source: E. coli (pET28b); purification of the mutants not separately stated
B6: lamin A E65G (natural protein, human, UniProt P02545 1-646, looked up)
chain: B1 chain with G25R, E65G
notes: as for B1
B7: lamin A E82K (natural protein, human, UniProt P02545 1-646, looked up)
chain: B1 chain with G25R, E82K
notes: lamin A, human; pre-lamin A without its last 18 amino acids, as m1; mutation associated with DCM-CD; source: E. coli (pET28b); purification of the mutants not separately stated
B8: lamin A R388C (natural protein, human, UniProt P02545 1-646, looked up)
chain: B1 chain with G25R, R388C
notes: lamin A, human; pre-lamin A without its last 18 amino acids, as m1; mutation associated with CMD; source: E. coli (pET28b); purification of the mutants not separately stated

Target: the molecule itself
Assay: rotary metal shadowing EM; in vitro assembly assay: after dialysis into 25 mM MES, 150 mM NaCl, 1 mM DTT, 1 mM EGTA pH 6.5, 30% glycerol; dimers scored as singular or incorporated into head-to-tail oligomers

Row | Protein | stoichiometry N
1 | B1 | 2
2 | B2 | 2
3 | B3 | 2
4 | B4 | 2
5 | B5 | 2
6 | B6 | 2
7 | B7 | 2
8 | B8 | 2
